Laboratory results from patent publication US20110263454A1, “Methods of Identifying Functional Characteristics of Promoters, Transcription Modifying Proteins and Transcription Modulating Agents” (Salk Institute for Biological Studies, priority 2008, published 2011).

B1: NR4a3: NR4a3 (NR4A3; NOR1), nuclear hormone receptor cDNA driver (protein, UniProt Q92570 1-626, looked up)
Nuclear receptor subfamily 4 …: MPCVQAQYSPSPPGSSYAAQTYSSEYTTEIMNPDYTKLTMDLGSTEITATATTSLPSISTFVEGYSSNYELKPSCVYQMQRPLIKVEEGRAPSYHHHHHHHHHHHHHHQQQHQQPSIPPASSPEDEVLPSTSMYFKQSPPSTPTTPAFPPQAGALWDEALPSAPGCIAPGPLLDPPMKAVPTVAGARFPLFHFKPSPPHPPAPSPAGGHHLGYDPTAAAALSLPLGAAAAAGSQAAALESHPYGLPLAKRAAPLAFPPLGLTPSPTASSLLGESPSLPSPPSRSSSSGEGTCAVCGDNAACQHYGVRTCEGCKGFFKRTVQKNAKYVCLANKNCPVDKRRRNRCQYCRFQKCLSVGMVKEVVRTDSLKGRRGRLPSKPKSPLQQEPSQPSPPSPPICMMNALVRALTDSTPRDLDYSRYCPTDQAAAGTDAEHVQQFYNLLTASIDVSRSWAEKIPGFTDLPKEDQTLLIESAFLELFVLRLSIRSNTAEDKFVFCNGLVLHRLQCLRGFGEWLDSIKDFSLNLQSLNLDIQALACLSALSMITERHGLKEPKRVEELCNKITSSLKDHQSKGQALEPTESKVLGALVELRKICTLGLQRIFYLKLEDLVSPPSIIDKLFLDTLPF
B2: NR4a2: NR4a2 (NR4A2; NURR1), nuclear hormone receptor cDNA driver (protein, UniProt P43354 1-598, looked up)
Nuclear receptor subfamily 4 …: MPCVQAQYGSSPQGASPASQSYSYHSSGEYSSDFLTPEFVKFSMDLTNTEITATTSLPSFSTFMDNYSTGYDVKPPCLYQMPLSGQQSSIKVEDIQMHNYQQHSHLPPQSEEMMPHSGSVYYKPSSPPTPTTPGFQVQHSPMWDDPGSLHNFHQNYVATTHMIEQRKTPVSRLSLFSFKQSPPGTPVSSCQMRFDGPLHVPMNPEPAGSHHVVDGQTFAVPNPIRKPASMGFPGLQIGHASQLLDTQVPSPPSRGSPSNEGLCAVCGDNAACQHYGVRTCEGCKGFFKRTVQKNAKYVCLANKNCPVDKRRRNRCQYCRFQKCLAVGMVKEVVRTDSLKGRRGRLPSKPKSPQEPSPPSPPVSLISALVRAHVDSNPAMTSLDYSRFQANPDYQMSGDDTQHIQQFYDLLTGSMEIIRGWAEKIPGFADLPKADQDLLFESAFLELFVLRLAYRSNPVEGKLIFCNGVVLHRLQCVRGFGEWIDSIVEFSSNLQNMNIDISAFSCIAALAMVTERHGLKEPKRVEELQNKIVNCLKDHVTFNNGGLNRPNYLSKLLGKLPELRTLCTQGLQRIFYLKLEDLVPPPAIIDKLFLDTLPF
B3: SHP: Small Heterodimer Partner (NR0B2), cDNA driver (protein, UniProt Q15466 1-257, looked up)
Nuclear receptor subfamily 0 …: MSTSQPGACPCQGAASRPAILYALLSSSLKAVPRPRSRCLCRQHRPVQLCAPHRTCREALDVLAKTVAFLRNLPSFWQLPPQDQRRLLQGCWGPLFLLGLAQDAVTFEVAEAPVPSILKKILLEEPSSSGGSGQLPDRPQPSLAAVQWLQCCLESFWSLELSPKEYACLKGTILFNPDVPGLQAASHIGHLQQEAHWVLCEVLEPWCPAAQGRLTRVLLTASTLKSIPTSLLGDLFFRPIIGDVDIAGLLGDMLLLR
B4: DAX-1: DAX1 (NR0B1), cDNA driver (protein, UniProt P51843 1-470, looked up)
Nuclear receptor subfamily 0 …: MAGENHQWQGSILYNMLMSAKQTRAAPEAPETRLVDQCWGCSCGDEPGVGREGLLGGRNVALLYRCCFCGKDHPRQGSILYSMLTSAKQTYAAPKAPEATLGPCWGCSCGSDPGVGRAGLPGGRPVALLYRCCFCGEDHPRQGSILYSLLTSSKQTHVAPAAPEARPGGAWWDRSYFAQRPGGKEALPGGRATALLYRCCFCGEDHPQQGSTLYCVPTSTNQAQAAPEERPRAPWWDTSSGALRPVALKSPQVVCEAASAGLLKTLRFVKYLPCFQVLPLDQQLVLVRNCWASLLMLELAQDRLQFETVEVSEPSMLQKILTTRRRETGGNEPLPVPTLQHHLAPPAEARKVPSASQVQAIKCFLSKCWSLNISTKEYAYLKGTVLFNPDVPGLQCVKYIQGLQWGTQQILSEHTRMTHQGPHDRFIELNSTLFLLRFINANVIAELFFRPIIGTVSMDDMMLEMLCTKI
B5: GCNF: Germ Cell Nuclear Factor (NR6A1, GCNF1), cDNA driver (protein, UniProt Q15406 1-480, looked up)
Nuclear receptor subfamily 6 …: MERDEPPPSGGGGGGGSAGFLEPPAALPPPPRNGFCQDELAELDPGTISVSDDRAEQRTCLICGDRATGLHYGIISCEGCKGFFKRSICNKRVYRCSRDKNCVMSRKQRNRCQYCRLLKCLQMGMNRKAIREDGMPGGRNKSIGPVQISEEEIERIMSGQEFEEEANHWSNHGDSDHSSPGNRASESNQPSPGSTLSSSRSVELNGFMAFREQYMGMSVPPHYQYIPHLFSYSGHSPLLPQQARSLDPQSYSLIHQLLSAEDLEPLGTPMLIEDGYAVTQAELFALLCRLADELLFRQIAWIKKLPFFCELSIKDYTCLLSSTWQELILLSSLTVYSKQIFGELADVTAKYSPSDEELHRFSDEGMEVIERLIYLYHKFHQLKVSNEEYACMKAINFLNQDIRGLTSASQLEQLNKRYWYICQDFTEYKYTHQPNRFPDLMMCLPEIRYIAGKMVNVPLEQLPLLFKVVLHSCKTSVGKE

Legend:
[1] = system: mPgc1b promoter; test: NHR-promoter luciferase screen, mPgc1b promoter; type: cell-based, mouse; settings: for Luc. act., normalized to lacZ / Normalized Luc. act., normalized to control: PGC1b promoter reporter, co-transfected HR, without or with its ligand; for Normalized Luc. act., normalized to control: relative to control; for luciferase activity normalized to lacZ activity and to a control, mPgc1b: mPgc1b promoter-luciferase, CV-1 cells, NHR +/- ligand, control = 1.00
Procedure, shortened: (§1)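 Luciferase reporter read-out after co-expression in CV-1 cells of V5H6-tagged receptor (alone or with RXR), the promoter construct and LacZ. Values are luciferase/LacZ relative to a control lacking NHR or ligand; orphan receptors tested ligand-free.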

[2] = system: mABCA1 promoter; test: NHR-promoter luciferase screen, mABCA1 promoter; type: cell-based, mouse; settings: for Luc. act., normalized to lacZ / Normalized Luc. act., normalized to control: ABCA1 promoter, hormone receptor with or without its ligand; for Normalized Luc. act., normalized to control: relative to control; for mABCA1 promoter reporter activity: transcription factor +/- ligand, control = 1.00
Procedure, shortened: (§2)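 CV-1 cells were co-transfected with 50 ng NHR (homodimer or NHR/RXR heterodimer), 100 ng promoter-luciferase construct and 50 ng LacZ. Luciferase was normalized to LacZ and to a no-NHR/no-ligand control.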

[3] = system: hCYP3A4 promoter; test: NHR-promoter luciferase screen, hCYP3A4 promoter; type: cell-based, human; settings: for Luc. act., normalized to lacZ / Normalized Luc. act., normalized to control: CYP3A4 promoter, HR/ligand component; for hCYP3A4 promoter reporter activity: transcription factor +/- ligand, control = 1.00
Procedure, shortened: as §1

[4] = system: mGhrelin promoter; test: NHR-promoter luciferase screen, mGhrelin promoter; type: cell-based, mouse; settings: for Luc. act., normalized to lacZ / Normalized Luc. act., normalized to control: Table 8, mGhrelin; for Results of assays of transcription factor (+/- ligand) with mGhrelin: Table 6d, luciferase activity relative to control (control = 1.00)
Procedure, shortened: as §2

[5] = system: mAgrp promoter; test: NHR-promoter luciferase screen, mAgrp promoter; type: cell-based, mouse; settings: for Results of assays of transcription factor (+/- ligand) with mAgrp: Table 6d, luciferase activity relative to control (control = 1.00); for Luc. act., normalized to lacZ / Normalized Luc. act., normalized to control: mAgrp promoter, HR component with or without ligand; for Normalized Luc. act., normalized to control: relative to control
Procedure, shortened: as §2

| Molecule | Luc. act., normalized to lacZ [1] | Normalized Luc. act., normalized to control [1] | luciferase activity normalized to lacZ activity and to a control, mPgc1b [1] | Luc. act., normalized to lacZ [2] | Normalized Luc. act., normalized to control [2] | mABCA1 promoter reporter activity [2] | Luc. act., normalized to lacZ [3] | Normalized Luc. act., normalized to control [3] | hCYP3A4 promoter reporter activity [3] | Luc. act., normalized to lacZ [4] | Normalized Luc. act., normalized to control [4] | Results of assays of transcription factor (+/- ligand) with mGhrelin [4] | Results of assays of transcription factor (+/- ligand) with mAgrp [5] | Luc. act., normalized to lacZ [5] | Normalized Luc. act., normalized to control [5] |
| --- | --- | --- | --- | --- | --- | --- | --- | --- | --- | --- | --- | --- | --- | --- | --- |
| B1 | 9.2 | 0.8 | 0.77 | 6.8 | 1.2 | 1.21 | 4.2 | 0.9 | 0.93 | 29.4 | 0.6 | 0.56 | 0.88 | 34.7 | 0.9 |
| B2 | 9.0 | 0.8 | 0.76 | 6.2 | 1.1 | 1.11 | 3.5 | 0.8 | 0.79 | 31.5 | 0.6 | 0.60 | 0.88 | 35.1 | 0.9 |
| B3 | 9.0 | 0.8 | 0.76 | 6.8 | 1.2 | 1.21 | 4.6 | 1.0 | 1.04 | 56.5 | 1.1 | 1.08 | 1.12 | 44.6 | 1.1 |
| B4 | 7.4 | 0.6 | 0.62 | 5.8 | 1.0 | 1.04 | 5.7 | 1.3 | 1.29 | 63.3 | 1.2 | 1.21 | 1.07 | 42.3 | 1.1 |
| B5 | 11.7 | 1.0 | 0.99 | 7.6 | 1.4 | 1.36 | 4.5 | 1.0 | 1.02 | 50.7 | 1.0 | 0.97 | 1.42 | 56.5 | 1.4 |
